In patent US20160009817A1 (Bayer, published 2016):

T1: human tissue factor pathway inhibitor (TFPI) (human, UniProt P10646 29-282, limits assumed)
T1 construct: also called Human TFPI
T1 sequence (looked up): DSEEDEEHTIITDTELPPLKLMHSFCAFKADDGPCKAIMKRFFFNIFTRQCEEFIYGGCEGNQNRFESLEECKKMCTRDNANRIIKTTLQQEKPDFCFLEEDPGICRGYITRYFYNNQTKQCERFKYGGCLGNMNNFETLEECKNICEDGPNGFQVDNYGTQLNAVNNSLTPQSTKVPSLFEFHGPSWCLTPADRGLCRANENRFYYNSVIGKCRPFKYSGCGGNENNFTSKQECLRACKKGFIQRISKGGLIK

B1: 3E10scFv-gA200 (bispecific antibody, human IgG2, lambda)
heavy: QVQLVESGGTLVQPGGSLRLSCAASGFSFTDAWMSWVRQAPGKELEWVSSISGSGGSTYYAGSVKGRFTISRDNSKNTLYLQMNSLRAEDTAVYYCARVLSLTDYYWYGMDVWGQGTLVTVGGGGSGGGGSGGGGSNFMLTQPHSVSASPGKTVTISCTRSSGSVASYYVQWYQQRPGSSPTTVIYEDNHRPSGVPDRFSGSIDTSSNSASLTISGLKTEDEADYYCQSYDSNNLVVFGGGTKLTVLGEGRTATSGGGLVQPGGSLRLSCAASGFTFSSYGMDWVRQAPGKGLEWVSSIRGSRGSTYYADSVKGRFTISRDNSKNTLYLQMNSLRAEDTAVYYCARLYRYWFDYWGQGTLVTVSSASTKGPSVFPLAPCSRSTSESTAALGCLVKDYFPEPVTVSWNSGALTSGVHTFPAVLQSSGLYSLSSVVTVPSSNFGTQTYTCNVDHKPSNTKVDKTVERKCCVECPPCPAPPVAGPSVFLFPPKPKDTLMISRTPEVTCVVVDVSHEDPEVQFNWYVDGVEVHNAKTKPREEQFNSTFRVVSVLTVVHQDWLNGKEYKCKVSNKGLPAPIEKTISKTKGQPREPQVYTLPPSREEMTKNQVSLTCLVKGFYPSDIAVEWESNGQPENNYKTTPPMLDSDGSFFLYSKLTVDKSRWQQGNVFSCSVMHEALHNHYTQKSLSLSPG
light: SYELTQPPSVSVSPGQTARITCSGDNLPKYYAHWYQQKPGQAPVVVIFYDVNRPSGIPERFSGSNSGNTATLTISGTQAMDEADYYCQAWWSSTPVFGGGTKLTVLGQPKAAPSVTLFPPSSEELQANKATLVCLISDFYPGAVTVAWKADSSPVKAGVETTTPSKQSNNKYAASSYLSLTPEQWKSHRSYSCQVTHEGSTVEKTVAPTECS
notes: scFv against TF fused on the N-terminus of the heavy chain of anti-TFPI IgG gA200; made in CHO cells; also called 3E10sc-gA200
B2: Ter119scFv-gA200 (bispecific antibody, human IgG2, lambda)
heavy: QVKLQESGGGLVQPGGSLKLSCVASGFTFRDHWMNWVRQAPGKTMEWIGDIRPDGSDTNYAPSVRNRFTISRDNARSILYLQMSNMRSDYTATYYCVRDSPTRAGLMDAWGQGASVTVLTGGGGSGGGGSGGGGSDIQMIQSPSVLSASVGDRVTLNCKASQNINKYLNWYQQKLGEAPKVLIYNTNNLQTGIPSRFSGSGSGTDFTLTISSLQPEDFATYFCFQHYTWPTFGGGTKLELKEGRTATSGGGLVQPGGSLRLSCAASGFTFSSYGMDWVRQAPGKGLEWVSSIRGSRGSTYYADSVKGRFTISRDNSKNTLYLQMNSLRAEDTAVYYCARLYRYWFDYWGQGTLVTVSSASTKGPSVFPLAPCSRSTSESTAALGCLVKDYFPEPVTVSWNSGALTSGVHTFPAVLQSSGLYSLSSVVTVPSSNFGTQTYTCNVDHKPSNTKVDKTVERKCCVECPPCPAPPVAGPSVFLFPPKPKDTLMISRTPEVTCVVVDVSHEDPEVQFNWYVDGVEVHNAKTKPREEQFNSTFRVVSVLTVVHQDWLNGKEYKCKVSNKGLPAPIEKTISKTKGQPREPQVYTLPPSREEMTKNQVSLTCLVKGFYPSDIAVEWESNGQPENNYKTTPPMLDSDGSFFLYSKLTVDKSRWQQGNVFSCSVMHEALHNHYTQKSLSLSPG
light: SYELTQPPSVSVSPGQTARITCSGDNLPKYYAHWYQQKPGQAPVVVIFYDVNRPSGIPERFSGSNSGNTATLTISGTQAMDEADYYCQAWWSSTPVFGGGTKLTVLGQPKAAPSVTLFPPSSEELQANKATLVCLISDFYPGAVTVAWKADSSPVKAGVETTTPSKQSNNKYAASSYLSLTPEQWKSHRSYSCQVTHEGSTVEKTVAPTECS
notes: scFv against RBC fused on the N-terminus of the heavy chain of anti-TFPI IgG gA200; made in CHO cells; also called Ter119sc-gA200; T119sc-gA200
B3: gA200 (antibody, human IgG2, lambda, V domains shown)
VH: EVQLVESGGGLVQPGGSLRLSCAASGFTFSSYGMDWVRQAPGKGLEWVSSIRGSRGSTYYADSVKGRFTISRDNSKNTLYLQMNSLRAEDTAVYYCARLYRYWFDYWGQGTLVTVSS
VL: SYELTQPPSVSVSPGQTARITCSGDNLPKYYAHWYQQKPGQAPVVVIFYDVNRPSGIPERFSGSNSGNTATLTISGTQAMDEADYYCQAWWSSTPVFGGGTKLTVLG
modifications: Fc N-glycan
notes: Human anti-TFPI IgG from human antibody libraries, optimised; no masking domain; also called parental anti-TFPI antibody gA200; unmodified anti-TFPI antibody

How the values were obtained:
[1] = target: T1, human tissue factor pathway inhibitor …; experiment: SPR (Biacore) kinetics, human TFPI immobilised
Procedure: (§1) Human TFPI was immobilized on CM4 or CM5 chip using amine coupling kit based on manufacturer's instruction. Anti-TFPI pro-drug antibodies or parental anti-TFPI antibody were flowed through the system with 10 μg/mL antibody with or without 15 μg/mL human serum albumin (HSA). The binding level was measure at 2 seconds after completion of each injection. In kinetics assay, antibodies with a series of concentrations were injected, followed by 30-minute dissociation time. The dissociation and association rate of the antibodies were modeled using BiaEvaluation software.

[2] = target: T1, human tissue factor pathway inhibitor …; experiment: SPR (Biacore) kinetics, human TFPI immobilised; reference gA200
Procedure: as §1

[3] = target: T1, human tissue factor pathway inhibitor …; experiment: SPR (Biacore) kinetics, human TFPI immobilised; antibody with HSA
Procedure: as §1

[4] = target: T1, human tissue factor pathway inhibitor …; experiment: SPR (Biacore), TFPI; with monkey serum albumin against antibody alone
[5] = target: T1, human tissue factor pathway inhibitor …; experiment: SPR (Biacore), TFPI; with HSA against antibody alone
[6] = target: T1, human tissue factor pathway inhibitor …; experiment: SPR (Biacore), TFPI; antibody alone (reference)
[7] = target: T1, human tissue factor pathway inhibitor …; experiment: SPR (Biacore) kinetics, human TFPI immobilised; antibody with HSA; reference gA200
Procedure: as §1

Row | Binder | Kd [1] [pM] | Affinity decrease (fold) [2] [fold] | Kd [3] [pM] | Affinity decrease (fold) [4] [fold] | Affinity decrease (fold) [5] [fold] | Affinity decrease (fold) [6] [fold] | Affinity decrease (fold) [7] [fold]
1 | B1 | 519 | 29.7 |  |  |  |  | 
2 | B2 | 256 | 14.7 |  |  |  |  | 
3 | B3 | 17.5 | 1 | 18.1 | 0.5 | 0.7 | 1 | 1.04
